Columns and labels:
[1] = target: T1, serine protease site peptide (SPS-peptide), N-…-C
T1 chain: KAQLRAAAGLGAGI

[2] = target: T2, SHEL (synthetic human elastin; recombinant human tropoelastin splice form)
T2 chain: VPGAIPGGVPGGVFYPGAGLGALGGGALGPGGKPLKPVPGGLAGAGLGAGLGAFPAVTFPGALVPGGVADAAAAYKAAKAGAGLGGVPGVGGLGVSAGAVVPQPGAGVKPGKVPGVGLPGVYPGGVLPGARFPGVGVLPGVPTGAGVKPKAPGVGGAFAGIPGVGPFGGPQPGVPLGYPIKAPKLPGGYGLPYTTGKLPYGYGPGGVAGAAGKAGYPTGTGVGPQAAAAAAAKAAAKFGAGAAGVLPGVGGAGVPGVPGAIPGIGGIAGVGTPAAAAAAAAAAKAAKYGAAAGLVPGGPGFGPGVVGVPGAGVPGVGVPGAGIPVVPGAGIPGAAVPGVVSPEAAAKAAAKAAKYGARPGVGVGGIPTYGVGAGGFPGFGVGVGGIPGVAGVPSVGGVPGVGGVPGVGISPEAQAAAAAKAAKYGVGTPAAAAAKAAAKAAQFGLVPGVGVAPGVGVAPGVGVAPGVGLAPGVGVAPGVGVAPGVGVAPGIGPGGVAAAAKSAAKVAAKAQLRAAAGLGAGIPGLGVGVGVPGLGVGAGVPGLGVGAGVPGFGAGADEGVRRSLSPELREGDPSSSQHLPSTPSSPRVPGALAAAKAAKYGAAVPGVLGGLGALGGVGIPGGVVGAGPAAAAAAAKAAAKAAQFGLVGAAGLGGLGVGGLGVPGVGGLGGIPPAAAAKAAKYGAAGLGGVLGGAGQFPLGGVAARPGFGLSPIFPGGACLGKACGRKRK

[3] = target: T3, SHELδ26A (SHEL lacking the sequence of exon 26A)
T3 chain: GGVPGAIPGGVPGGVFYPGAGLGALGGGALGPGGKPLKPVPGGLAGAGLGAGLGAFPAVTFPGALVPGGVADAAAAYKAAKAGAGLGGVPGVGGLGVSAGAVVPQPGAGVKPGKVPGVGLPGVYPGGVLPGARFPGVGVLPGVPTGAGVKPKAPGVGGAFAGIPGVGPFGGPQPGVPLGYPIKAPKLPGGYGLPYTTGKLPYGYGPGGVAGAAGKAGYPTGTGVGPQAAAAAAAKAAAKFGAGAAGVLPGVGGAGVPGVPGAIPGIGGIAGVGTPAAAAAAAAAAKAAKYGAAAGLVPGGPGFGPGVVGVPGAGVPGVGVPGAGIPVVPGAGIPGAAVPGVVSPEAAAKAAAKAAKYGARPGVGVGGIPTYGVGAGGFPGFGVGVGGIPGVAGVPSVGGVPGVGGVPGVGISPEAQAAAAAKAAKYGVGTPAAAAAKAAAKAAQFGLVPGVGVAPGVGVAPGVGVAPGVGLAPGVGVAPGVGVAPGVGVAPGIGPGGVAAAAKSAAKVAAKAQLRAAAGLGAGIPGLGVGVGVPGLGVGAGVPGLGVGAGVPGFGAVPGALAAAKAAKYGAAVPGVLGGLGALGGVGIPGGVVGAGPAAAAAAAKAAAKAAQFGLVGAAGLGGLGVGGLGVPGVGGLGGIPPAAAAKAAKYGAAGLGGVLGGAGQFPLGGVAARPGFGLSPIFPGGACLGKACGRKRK

B1: human plasmin (Sigma) (protein)
chain: KVYLSECKTGNGKNYRGTMSKTKNGITCQKWSSTSPHRPRFSPATHPSEGLEENYCRNPDNDPQGPWCYTTDPEKRYDYCDILECEEECMHCSGENYDGKISKTMSGLECQAWDSQSPHAHGYIPSKFPNKNLKKNYCRNPDRELRPWCFTTDPNKRWELCDIPRCTTPPPSSGPTYQCLKGTGENYRGNVAVTVSGHTCQHWSAQTPHTHNRTPENFPCKNLDENYCRNPDGKRAPWCHTTNSQVRWEYCKIPSCDSSPVSTEQLAPTAPPELTPVVQDCYHGDGQSYRGTSSTTTTGKKCQSWSSMTPHRHQKTPENYPNAGLTMNYCRNPDADKGPWCFTTDPSVRWEYCNLKKCSGTEASVVAPPPVVLLPDVETPSEEDCMFGNGKGYRGKRATTVTGTPCQDWAAQEPHRHSIFTPETNPRAGLEKNYCRNPDGDVGGPWCYTTNPRKLYDYCDVPQCAAPSFDCGKPQVEPKKCPGRVVGGCVAHPHSWPWQVSLRTRFGMHFCGGTLISPEWVLTAAHCLEKSPRPSSYKVILGAHQEVNLEPHVQEIEVSRLFLEPTRKDIALLKLSSPAVITDKVIPACLPSPNYVVADRTECFITGWGETQGTFGAGLLKEAQLPVIENKVCNRYEFLNGRVQSTELCAGHLAGGTDSCQGDSGGPLVCFEKDKYILQGVTSWGLGCARPNKPGVYVRVSRFVTWIEGVMRNN
amount of full-length SHEL after plasmin digestion with a 100:1 molar excess of SPS-peptide, SDS-PAGE and densitometry (also seen with SHELδ26A, not shown) [1]: more full-length SHEL was evident compared with controls using trypsin, plasmin, kallikrein and serum | degradation of SHEL by human plasmin, SDS-PAGE [2]: Major bands could be isolated using low concentration plasmin at 55, 45, 40, 34, 28, 22 and 18 kDa

B2: Gelatinase B (92 kDa gelatinase) (protein)
chain: MRTPRCGVPDLGRFQTFEGDLKWHHHNITYWIQNYSEDLPRAVIDDAFARAFALWSAVTPLTFTRVYSRDADIVIQFGVAEHGDGYPFDGKDGLLAHAFPPGPGIQGDAHFDDDELWSLGKGVVVPTRFGNADGAACHFPFIFEGRSYSACTTDGRSDGLPWCSTTANYDTDDRFGFCPSERLYTQDGNADGKPCQFPFIFQGQSYSACTTDGRSDGYRWCATTANYDRDKLFGFCPTRADSTVMGGNSAGELCVFPFTFLGKEYSTCTSEGRGDGRLWCATTSNFDSDKKWGFCPDQGYSLFLVAAHEFGHALGLDHSSVPEALMYPMYRFTEGPPLHKDDVNGIRHLYGPRPEPEPRPPTTTTPQPTAPPTVCPTGPPTVHPSERPTAGPTGPPSAGPTGPPTAGPSTATTVPLSPVDDACNVNIFDAIAEIGNQLYLFKDGKYWRFSEGRGSRPQGPFLIADKWPALPRKLDSVFEERLSKKLFFFSGRQVWVYTGASVLGPRRLDKLGLGADVAQVTGALRSGRGKMLLFSGRRLWRFDVKAQMVDPRSASEVDRMFPGVPLDTHDVFQYREKAYFCQDRFYWRVSSRSELNQVDQVGYVTYDILQCPED
digestion of SHEL by APMA-treated gelatinase B, SDS-PAGE [2]: Digestion with gelatinase A and gelatinase B (each previously treated with APMA) of SHEL revealed SDS-PAGE patterns of preferentially digested fragments

B3: human leukocyte elastase (HLE) (Sigma) (protein)
chain: IVGGRRARPHAWPFMVSLQLRGGHFCGATLIAPNFVMSAAHCVANVNVRAVRVVLGAHNLSRREPTRQVFAVQRIFENGYDPVNLLNDIVILQLNGSATINANVQVAQLPAQGRRLGNGVQCLAMGWGLLGRNRGIASVLQELNVTVVTSLCRRSNVCTLVRGRQAGVCFGDSGSPLVCNGLIHGIASFVRGGCASGLYPDAFAPVAQFVNWIDSIIQ
degradation of SHELδ26A by human leukocyte elastase, SDS-PAGE [3]: SHELδ26A produced a similar profile but with a series of fragments appearing 4 kDa smaller | amount of full-length SHEL after HLE digestion with SPS-peptide, SDS-PAGE and densitometry [1]: SPS-peptide also resulted in more full-length SHEL using thrombin and HLE but to a lesser extent | degradation of SHEL by human leukocyte elastase, SDS-PAGE [2]: numerous fragments were seen with two prominent fragments at 32 and 18 kDa

B4: Gelatinase A (72 kDa gelatinase) (protein)
chain: YNFFPRKPKWDKNQITYRIIGYTPDLDPETVDDAFARAFQVWSDVTPLRFSRIHDGEADIMINFGRWEHGDGYPFDGKDGLLAHAFAPGTGVGGDSHFDDDELWTLGEGQVVRVKYGNADGEYCKFPFLFNGKEYNSCTDTGRSDGFLWCSTTYNFEKDGKYGFCPHEALFTMGGNAEGQPCKFPFRFQGTSYDSCTTEGRTDGYRWCGTTEDYDRDKKYGFCPETAMSTVGGNSEGAPCVFPFTFLGNKYESCTSAGRSDGKMWCATTANYDDDRKWGFCPDQGYSLFLVAAHEFGHAMGLEHSQDPGALMAPIYTYTKNFRLSQDDIKGIQELYGASPDIDLGTGPTPTLGPVTPEICKQDIVFDGIAQIRGEIFFFKDRFIWRTVTPRDKPMGPLLVATFWPELPEKIDAVYEAPQEEKAVFFAGNEYWIYSASTLERGYPKPLTSLGLPPDVQRVDAAFNWSKNKKTYIFAGDKFWRYNEVKKKMDPGFPKLIADAWNAIPDNLDAVVDLQGGGHSYFFKGAYYLKLENQSLKSVKFGSIKSDWLGC
digestion of SHEL by APMA-treated gelatinase A, SDS-PAGE [2]: Digestion with gelatinase A and gelatinase B (each previously treated with APMA) of SHEL revealed SDS-PAGE patterns of preferentially digested fragments

Source: patent US7229788
